Experimental data reported in article PMC3143649 (The Journal of Biological Chemistry, 2011).
Substitutions are numbered along the chain they refer to. Names may count otherwise. “And” between values parts separate entries of the source, which are not always exact repeats. Equal values may be shown once. Read-outs that look alike come from different tables or passages of the source.

Assays:
[1] = target: the molecule itself
cross-linking = target: the molecule itself; assay: cross-linking
[2] = target: Cys-less MtrE C21S (Neisseria gonorrhoeae) (UniProt Q51006); assay: cross-linking
native MS = target: the molecule itself; assay: native MS
[3] = target: the molecule itself; assay: negative-stain electron microscopy
atomic force microscopy = target: the molecule itself; assay: atomic force microscopy

B1: MtrD (natural protein, Neisseria gonorrhoeae, UniProt Q51073 1-1067, looked up)
chain: MAKFFIDRPIFAWVISIFIIAAGIFGIKSLPVSQYPSVAAPTITLHAIYPGASAQVMEGSVLSVIERNMNGVEGLDYMSTSADSSGSGSVSLTFTPDTDENLAQVEVQNKLSEVLRTLPATVQQYGVTVSKARSNFLMIVMLSSDVQSTEEMNDYAQRNVVPELQRIEGVGQVRLFGAQRAMRIWVDPKKLQNYNLSFADVGSALSAQNIQISAGSIGSLPAVRGQTVTATVTAQGQLGTAEEFGNVILRANTDGSNIYLKDVAKVGLGMEDYSSSTRLNGVNTTGMAVMLSNSGNAMATAKAVKERLAVLEKYFPQGMSWKTPYDTSKFVEISIEKVIHTLIEAMVLVFVVMYLFLQNIRYTLIPTIVVPISLLGGFAFISYMGMSINVLTMFAMILVIGIVVDDAIVVVENVERIMAGEGLPPKEATKKAMGQISGAVIGITAVLISVFVPLAMFSGAAGNIYKQFALTMASSIAFSAFLALTLTPALCATMLKTIPKGHHEEKKGFFGWFNKKFDSWTHGYEGRVAKVLRKTFRMMVVYIGLAVVGVFLFMRLPTSFLPTEDQGFVMVSVQLPAGATKERTDATLAQVTQLAKSIPEIENIITVSGFSFSGSGQNMAMGFAIFKDWNERTASGSDAVAVAGKLTGMMMGTLKDGFGIAVVPPPILELGNGSGLSINLQDRNNTGHTGIAGEGNELIQKMRASGLFDPSTVRAGGLEDSPQLKIDINRAAAAAQGISFADIRTALASALSSSYVSDFPNQGRLQRVMVQADEDARMQPADILNLTVPNKSGVAVPLSTIATVSWENGTEQSVRFNGYPSMKLSASPATGVSTGQAMEAVQKMVDELGGGYSFEWGGQSSEEAKGGSQTLILYGLAVAAVFLVLAALYESWSIPLAVILVIPLGLIGAAAGVTGRNLFEGLLGSVPSFANDIYFQVGFVTVMGLSAKNAILIIEFAKDLQAQGKSAVEAALEAARLRFRPIIMTSFAFILGVVPLYIAAGASSASQRAIGTTVFWGMLVGTLLSVFLVPLFYVVVRKFFKETAHEHEMAVRHASKAGITGSDDKQY
For B1, the “stoichiometry N” value [1] was 3.

B2: MtrE, wild type (natural protein, Neisseria gonorrhoeae, UniProt Q51006 1-467, looked up)
chain: CTMIPQYEQPKVEVAETFQNDTSVSSIRAVDLGWHDYFADPRLQKLIDIALERNTSLRTAVLNSEIYRKQYMIERNNLLPTLAANANGSRQGSLSGGNVSSSYNVGLGAASYELDLFGRVRSSSEAALQGYFASVANRDAAHLSLIATVAKAYFNERYAEEAMSLAQRVLKTREETYNAVRIAVQGRRDFRRRPAPAEALIESAKADYAHAARSREQARNALATLINRPIPEDLPAGLPLDKQFFVEKLPAGLSSEVLLDRPDIRAAEHALKQANANIGAARAAFFPSIRLTGSVGTGSVELGGLFKSGTGVWAFAPSITLPIFTWGTNKANLDVAKLRQQAQIVAYESAVQSAFQDVANALAAREQLDKAYDALSKQSRASKEALRLVGLRYKHGVSGALDLLDAERSSYSAEGAALSAQLTRAENLADLYKALGGGLKRDTQTGK
In the case of B2, the “stoichiometry N” value [1] is reported as 3.

B3: NT-MtrC D143C (domain or fragment, Neisseria gonorrhoeae, UniProt P43505 35-412, looked up)
chain: GQPAGREAPAPVVGVVTVHPQTVALTVELPGRLESLRTADVRAQVGGIIQKRLFQEGSYVRAGQPLYQIDSSTYEAGLESARAQLATAQATLAKADADLARYKPLVSACAISKQEYDAAVTAKRSAEASVKAAQAAIKSAGINLNRSRITAPISGFIGQSKVSEGTLLNAGDTTVLATIRQTNPMYVNVTQSASEVMKLRRQIAEGKLLAADGAIAVGIKFDDGTVYPEKGRLLFADPTVDESTGQITLRAAVSNDQNILMPGLYVRVLMDQVAADNAFIVPQQAVTRGAKDTVMIVNAQGGMEPREVTVAQQQGTNWIVTSGLKDGDKVVVEGISIAGMTGAKKVTPKEWAPSENQAAAPQAGVQTASEAKPASEAK
For B3, the “stoichiometry N” value (cross-linking) was 2 and the stoichiometry N (MtrC per MtrE) [2] was 2.

B4: NT-MtrC, the N-terminal truncated (Δ1–34) MtrC (domain or fragment, Neisseria gonorrhoeae, UniProt P43505 35-412, looked up)
chain: B3 chain with C109D
B4 was tested, and the “stoichiometry N” value (native MS) was 6 and 5.

B5: NT-MtrC E149C (domain or fragment, Neisseria gonorrhoeae, UniProt P43505 35-412, looked up)
chain: B3 chain with C109D, E115C
In the case of B5, the “stoichiometry N” value (cross-linking) is reported as 2 and the stoichiometry N (MtrC per MtrE) [2] is reported as 2.

B6: MacA (natural protein, E. coli, UniProt P75830 1-371, looked up)
chain: MKKRKTVKKRYVIALVIVIAGLITLWRILNAPVPTYQTLIVRPGDLQQSVLATGKLDALRKVDVGAQVSGQLKTLSVAIGDKVKKDQLLGVIDPEQAENQIKEVEATLMELRAQRQQAEAELKLARVTYSRQQRLAQTKAVSQQDLDTAATEMAVKQAQIGTIDAQIKRNQASLDTAKTNLDYTRIVAPMAGEVTQITTLQGQTVIAAQQAPNILTLADMSAMLVKAQVSEADVIHLKPGQKAWFTVLGDPLTRYEGQIKDVLPTPEKVNDAIFYYARFEVPNPNGLLRLDMTAQVHIQLTDVKNVLTIPLSALGDPVGDNRYKVKLLRNGETREREVTIGARNDTDVEIVKGLEAGDEVVIGEAKPGAAQ
In the case of B6, the “stoichiometry N” value [3] is reported as 6.

B7: MtrC α-helical coiled-coil hairpin domain (domain or fragment, Neisseria gonorrhoeae, UniProt P43505 103-183, looked up)
chain: IDSSTYEAGLESARAQLATAQATLAKADADLARYKPLVSADAISKQEYDAAVTAKRSAEASVKAAQAAIKSAGINLNRSRI
With B7 the “stoichiometry N” value (atomic force microscopy) was 6 and the “stoichiometry N” value (native MS) was 2.
